B1: Twister Ribozyme (parent)
chain: AACACUGCCAAUGCCGGUCCCAAGCCCGGAUAAAAGUGGAGGGGGCGG

Variants of: B1
Experiment: self-cleavage, relative activity (ratio to wild type); higher = more cleavage; co-transcriptional

Variant | self-cleavage
U18A A32C | 0.53
U18A A32G | 0.407
U18A A32U | 0.632
G17U G45U | 0.221
G17U G45C | 0.183
U18A A22U | 0.17
U18A G39C | 0.102
U18A G39U | 0.144
C19G G36A | 0.101
C19G G36C | 0.118
C19G C21A | 0.0839
C19G C21U | 0.101
U18C G43A | 0.188
U18C G43U | 0.111
U18C G43C | 0.121
U18A G47A | 0.201
U18A G47C | 0.164
U18A G48C | 0.395
U18A G48U | 0.419
C19A U37C | 0.0949
C19A U37G | 0.0778
G17A G43A | 0.156
G17C G29C | 0.0728
C19A G38U | 0.12

Variant | self-cleavage
C19A G38A | 0.132
U18A G29U | 0.389
U18A G29C | 0.0874
G17C G44U | 0.124
G17C A35G | 0.0629
G17C A35C | 0.0982
U18G G48U | 0.117
C19A A23C | 0.126
U18G C19U | 0.105
U18G A35C | 0.0813
G17C G47U | 0.0863
U18A G43A | 0.147
U18G A34C | 0.0636
U18G A34U | 0.0388
U18G A30U | 0.0738
G17C A40G | 0.0717
C19G G38A | 0.132
U18A C21A | 0.084
U18A C21G | 0.395
C19A A30U | 0.349
C19A A30G | 0.444
C19G C46A | 0.18
C19A U31G | 0.334
C19G C27G | 0.0733

Variant | self-cleavage
C19G C27A | 0.0851
G17A G48C | 0.724
G17A G48U | 0.603
U18C G36C | 0.1
G17U U37C | 0.085
C19A G47A | 0.139
C19A G47C | 0.155
U18A A30G | 0.606
U18A A30U | 0.586
C19A G28U | 0.179
C19A G45A | 0.196
C19A G45U | 0.257
C19A C26U | 0.0877
C19A A40C | 0.148
C19A A40U | 0.16
U18A C26G | 0.124
U18G U37C | 0.0884
C19G G28C | 0.108
G17A G44U | 0.704
G17U G36U | 0.0806
G17U G36C | 0.14
G17U A32C | 0.263
G17U A32G | 0.345
G17U A32U | 0.294

Variant | self-cleavage
U18G C20A | 0.057
U18G C20G | 0.069
U18G A33U | 0.0323
G17U C25A | 0.0904
G17U C25G | 0.0862
G17C G42C | 0.11
G17C G42A | 0.0674
G17C G39U | 0.0818
G17C G39C | 0.0888
U18A A40G | 0.0784
G17U U31C | 0.495
G17C A22C | 0.123
G17C A22U | 0.0369
C19A A34U | 0.116
G17U G47A | 0.237
U18G G24C | 0.117
U18G G24A | 0.0714
C19G A30C | 0.0929
G17U C26A | 0.719
U18C A30G | 0.713
U18C A30C | 0.0938
U18G G39C | 0.0419
G17C G36U | 0.0484
G17C G36C | 0.0812

Variant | self-cleavage
U18C G38C | 0.523
U18C G38A | 0.371
U18A G42U | 0.161
U18C G24U | 0.079
U18C G24C | 0.0613
C19G A22G | 0.0844
U18G C26G | 0.0643
G17C | 0.153
G17U | 0.497
G17C A23C | 0.092
G17C A23G | 0.0841
G17C A23U | 0.0824
G17A G38A | 0.498
U18G G29C | 0.0613
G17A U31G | 0.706
U18C G28U | 0.156
U18G C46A | 0.0573
U18A A34U | 0.0942
U18A A34G | 0.171
U18A U31C | 0.568
U18A U31G | 0.644
C19A G24U | 0.0798
C19A G24A | 0.0849
G17C C21G | 0.0972

Variant | self-cleavage
G17C C21U | 0.0868
U18C G41A | 0.137
G17U G43U | 0.12
G17U A30C | 0.147
G17U A30U | 0.485
G17C A32G | 0.129
G17C A32C | 0.0792
U18G U31A | 0.0937
U18G U31G | 0.102
U18G U31C | 0.106
U18C A35U | 0.665
C19A C27A | 0.0712
C19A C27G | 0.073
G17C G48U | 0.163
G17C G48A | 0.133
U18C C20G | 0.102
U18C C20A | 0.0953
G17A G29U | 0.336
G17A G29A | 0.308
G17A G29C | 0.222
G17A G47C | 0.224
G17A G47U | 0.489
G17A G47A | 0.297
U18C C26U | 0.0772

Variant | self-cleavage
U18C C26G | 0.0519
G17C G45U | 0.107
G17C G45C | 0.0995
U18A G44C | 0.448
U18A G44A | 0.631
U18C C27G | 0.0754
U18G G28U | 0.089
U18A C27G | 0.0805
U18A C27A | 0.114
C19A A32U | 0.189
C19A A32C | 0.201
G17C U18A | 0.0862
G17C U18G | 0.0748
C19A G36A | 0.102
U18A C19A | 0.0671
U18C C19A | 0.0644
G17U G28C | 0.0949
U18C U37A | 0.197
G17C U31G | 0.139
G17C U31C | 0.115
U18C C21G | 0.0463
G17A G45U | 0.147
G17A G45A | 0.386

Source: the RNAGym collection of RNA variant scans (doi:10.7554/elife.80360)
